According to US20130302399A1 (ALDERBIO, published 2013):

target: T1, human Proprotein Convertase Subtilisin-like/Kexin type 9 (human, UniProt Q8NBP7 31-692, limits assumed); assay: BLI (Octet QK), biotinylated antibody on streptavidin sensors, human PCSK9 in solution, 1:1 fit
T1 construct: Biotinylated in the ELISAs; unlabelled analyte in BLI and SPR; also called human PCSK9; PCSK9
Description: Binding affinities of monoclonal antibodies for PCSK9 were estimated using Bio-Layer Interferometry (BLI) on the Octet QK (ForteBio). Biotinylated antibody was immobilized at different densities to the surface of Streptavidin (SA) Biosensors. A dilution series of human PCSK9 prepared in 1× Kinetics Buffer (NaCl 0.0138 M; KCl 0.00027 M; 0.1 mg/mL BSA, 0.002% Tween and 0.005% Sodium Azide; pH 7.4, at 25° C.) purchased from the manufacturer (ForteBio) was used to query the antibodies. At our chosen concentrations of antigen (˜0.25 μg/mL-2 μg/mL) association times of 15 minutes and dissociation times of 25 minutes were used with the Octet Analysis Software (v6.4, ForteBio), to globally fit data using a 1:1 Langmuir binding model.

T1 sequence (Q8NBP7 31-692 limits assumed): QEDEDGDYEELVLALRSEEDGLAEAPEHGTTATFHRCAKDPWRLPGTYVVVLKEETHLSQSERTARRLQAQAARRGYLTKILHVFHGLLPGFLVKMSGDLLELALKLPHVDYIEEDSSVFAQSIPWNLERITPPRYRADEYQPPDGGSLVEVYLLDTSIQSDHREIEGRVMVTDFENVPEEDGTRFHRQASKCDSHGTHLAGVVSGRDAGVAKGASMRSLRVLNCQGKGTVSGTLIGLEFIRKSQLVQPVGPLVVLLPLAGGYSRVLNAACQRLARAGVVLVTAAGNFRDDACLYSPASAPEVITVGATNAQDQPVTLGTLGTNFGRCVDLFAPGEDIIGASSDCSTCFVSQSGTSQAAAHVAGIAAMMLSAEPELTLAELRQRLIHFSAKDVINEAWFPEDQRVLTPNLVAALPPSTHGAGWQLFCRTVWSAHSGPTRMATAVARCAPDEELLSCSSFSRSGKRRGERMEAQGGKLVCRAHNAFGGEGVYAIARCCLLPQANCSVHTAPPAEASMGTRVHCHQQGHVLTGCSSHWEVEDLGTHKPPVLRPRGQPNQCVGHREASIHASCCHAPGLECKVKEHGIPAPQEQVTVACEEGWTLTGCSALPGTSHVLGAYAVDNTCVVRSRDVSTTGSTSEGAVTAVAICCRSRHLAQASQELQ

Kd [nM] | koff [s⁻¹] | kon [M⁻¹ s⁻¹] | Binder
7.99 | 0.0013 | 162000 | Ab1 (antibody, human IgG1, kappa, N297A, V domains shown, also called antibody Ab1) VH: QSVEESGGRLVTPGTPLTLTCTVSGFSLSSYWMTWVRQAPGKGLEYIGIISSSGSTYYATWAKGRFTISKTSSTTVDLEITSPTTEDTATYFCARDSAFSSGLEFNIWGPGTLVTVSS VL: AYDLTQTPASVEVAVGGTVTIKCQASQSVYSNWLSWYQQKPGQPPKLLIYDASDLASGVPSRFKGSGSGTQFTLTISGVQCDDAATYYCQQGQSSSDIDNTFGGGTEVVVKR
0.637 | 4.91e-05 | 77000 | Ab9 (antibody, human IgG1, kappa, N297A, V domains shown, also called antibody Ab9) VH: QSVEESGGRLVTPGTPLTLTCTVSGIDLSSYAMGWVRQAPGKGLEYIGIIVSYGPTYYASWAKGRFTISKTSTTVDLKITSPTAEDTATYFCARDLDANSSGYYGCFNIWGQGTLVTVSS VL: AVVLTQTPASVSAAVGGTVTIKCQASQSISTALAWYQQKPGQPPKLLIYAASPLASGVSSRFKSSGSGTEFTLTISDLECADAATYYCQSYYGSSNIAFGGGTELEILR
0.637 | 4.91e-05 | 77000 | Ab8 (antibody, human IgG1, kappa, N297A, V domains shown, also called antibody Ab8) VH: QEQLVESGGGLVQPEGSLTLTCTASGFSFTSDYYMCWVRQAPGKGLEWIGCISTGDGSTYYASWAKGRFTISKPSSTTVTLQMTRLTAADTATYFCARDRYYSYAYGAYVYASDLWGPGTLVTVSS VL: DIVMTQTPASVSEPVGGTVTINCQASESIRNYLSWYQQKPGQRPKLLIYGASTLASGVPSRFKGSGSGTDFTLTISDLECADAATYYCQSNYGISSRSYVNGFGGGTEVVVKR
4.25 | 0.000453 | 107000 | Ab2 (antibody, human IgG1, kappa, N297A, V domains shown, also called antibody Ab2) VH: QSVEESGGRLVTPGTPLTLTCTVSGFSLSSYAMSWVRQAPGKGLEWIGIIDAIDNTYYASWAKGRFTISKTSTTVDLKMTSLTTGDTATYFCARASILGYSIATGFNIWGPGTLVTVSS VL: AYDMTQTPASVEVAVGGTVTIKCQASQSISSHLAWYQQKSGQPPKLLIYRASTLESGVSSRFKGSGSGTEFTLTISDLECADAATYYCQQGYGVSDVDNGFGGGTEVVVKR
0.379 | 2.68e-05 | 70700 | Ab7 (antibody, human IgG1, kappa, N297A, also called antibody Ab7) heavy: not shown light: ADIVMTQSPSSLSASVGDRVTIKCQASQSISAYLAWYQQKPGKVPKLLIYRAYTLASGVPSRFSGSGSGTDFTLTISSLQPEDVATYYCQSYYSVTTNTYGNTFGGGTKVEIKRTVAAPSVFIFPPSDEQLKSGTASVVCLLNNFYPREAKVQWKVDNALQSGNSQESVTEQDSKDSTYSLSSTLTLSKADYEKHKVYACEVTHQGLSSPVTKSFNRGEC
0.12 | 1.21e-05 | 100000 | Ab12 (antibody, human IgG1, kappa, N297A, also called antibody Ab12) heavy: not shown light: ANIVMTQSPSSLSASVGDRVTIKCQASQSISNYLAWYQQKPGKVPKLLIYRTSTLASGVPSRFSGSGSGTDFTLTISSLQPEDVATYYCQSYYSVTTVAYGNTFGGGTKVEIKRTVAAPSVFIFPPSDEQLKSGTASVVCLLNNFYPREAKVQWKVDNALQSGNSQESVTEQDSKDSTYSLSSTLTLSKADYEKHKVYACEVTHQGLSSPVTKSFNRGEC
0.332 | 2.22e-05 | 66800 | Ab11 (antibody, human IgG1, kappa, N297A, also called antibody Ab11) heavy: not shown light: ANIVMTQSPSSLSASVGDRVTITCQASQSISNYLAWYQQKPGKVPKLLIYRTSTLASGVPSRFSGSGSGTDFTLTISSLQPEDVATYYCQSYYSVTTVAYGNTFGGGTKVEIKRTVAAPSVFIFPPSDEQLKSGTASVVCLLNNFYPREAKVQWKVDNALQSGNSQESVTEQDSKDSTYSLSSTLTLSKADYEKHKVYACEVTHQGLSSPVTKSFNRGEC
0.215 | 2.09e-05 | 97000 | Ab18 (antibody, human IgG1, kappa, N297A, also called antibody Ab18) heavy: not shown light: ADIVMTQSPSSLSASVGDRVTIKCQASQSISAYLAWYQQKPGKVPKLLIYRAYTLASGVPSRFSGSGSGTDFTLTISSLQPEDVATYYCQSYYSVTTNTYGNTFGGGTKVEIKRTVAAPSVFIFPPSDEQLKSGTASVVCLLNNFYPREAKVQWKVDNALQSGNSQESVTEQDSKDSTYSLSSTLTLSKADYEKHKVYACEVTHQGLSSPVTKSFNRGEC
1.3 | 0.000116 | 88000 | Ab19 (antibody, human IgG1, kappa, N297A, V domains shown, also called antibody Ab19) VH: EVQLVESGGGLVQPGGSLRLSCAASGIDLSSYAMGWVRQAPGKGLEYIGIIVSYGPTYYASWAKGRFTISRDNSKNTVYLQMNSLRAEDTATYFCARDLDAQSSGYYGAFNIWGQGTLVTVSS VL: DIQMTQSPSTLSASVGDRVTITCQASQSISTALAWYQQKPGKAPKLLIYAASPLASGVPSRFSGSGSGTEFTLTISSLQPDDFATYYCQSYYGSSNIAFGGGTKVEIKR
6 | 0.000422 | 70300 | Ab4 (antibody, human IgG1, kappa, N297A, V domains shown, also called antibody Ab4) VH: QSVEESGGRLVTPGTPLTLTCTVSGIDLSSYAMIWVRQAPEKGLEYIGYIGGIDSTYYASWAKGRFTISKTSTTVDLKMTSPTTEDTATYFCGRWSGTSGYNTIWGPGTLVTVSS VL: DVVMTQTPASVEAAVGGTVTIKCQASQSIYSNLAWYQQKPGQPPKLLIYGASNLASGVSSRFKGSRSGTEYTLTISDLECADAATYYCQCTGGGDSGNTFGGGTEVVVKR
0.531 | 4e-05 | 75300 | Ab6 (antibody, human IgG1, kappa, N297A, V domains shown, also called antibody Ab6) VH: QEQLEESGGDLVKPEGSLTLTCTASGFSFSSNYWICWVRQAPGKGLEWIGCIRDGGGTYYASWAKGRLTISMTSSTTVTLQLNSLTAADTATYFCASDINDGWLGQFNLWGPGTLVTVSS VL: DIVMTQTPASVEVAVGGTVTIKCQASQSISAYLAWYQQKPGQPPKLLIYRAYTLASGVPSRFKGSGSGTQFTLTISDLECADAATYYCQSYYSVTTNTYGNTFGGGTEVVVKR
0.609 | 6.27e-05 | 103000 | Ab17 (antibody, human IgG1, kappa, N297A, V domains shown, also called antibody Ab17) VH: QEQLEESGGDLVKPEGSLTLTCTASGFSFSSSYWICWVRQAPGKGLEWIGCIRPGSADYYASWAKGRFTISRASSSTVTLQMTSLTAADTATYFCASDINDGWLGQFNLWGPGTLVTVSS VL: DVVMTQTPASVEAAVGGTVTIKCQASLSIADYLAWYLQKPGQPPKLLIYRASTLASGVPSRFKGSGSGTEYTLTISDLECADAATYYCQSYYSVTTNTYGNTFGGGTEVVVKR
1.28 | 9.92e-05 | 77500 | Ab16 (antibody, human IgG1, kappa, N297A, V domains shown, also called antibody Ab16) VH: QEQLVESGGGLVQPEGSLTLTCTASGFSFSSDYWICWVRQAPGKGLEWIGCIRDGGGSYYANWAKGRLTISMTSSTTVGLKMTSLTAADTATYFCASDINDGWLGQFNLWGPGTLVTVSS VL: DIVMTQTPASVEAAVGGTVTIKCQASQSISSYLAWYQQKPGQPPKLLIYRASTLASGVPSRFSGSGSGTEFTLTISDLECADAATYYCQSYYSVTTVTYGNTFGGGTEVVVKR
0.676 | 5.09e-05 | 75300 | Ab10 (antibody, human IgG1, kappa, N297A, V domains shown, also called antibody Ab10) VH: QEQLEESGGDLVKPEGSLTLTCTASGFSFSSSYWICWVRQAPGKGLEWIACIRAGGGNYYANWAKGRFTISRTSSTTVTLQMTSLTAADTATYFCASDINDGWLGQFNLWGPGTLVTVSS VL: NIVMTQTPASVEAAVGGTVTIKCQASQSISNYLAWYQQKPGQPPKLLIYRTSTLASGVPSRFKGSGSGTQFTLTISDLECADAATYYCQSYYSVTTVAYGNTFGGGTEVVVKR
3.7 | 0.000362 | 97900 | Ab14 (antibody, human IgG1, kappa, N297A, V domains shown, also called antibody Ab14) VH: QEQLEESGGDLVKPEGSLTLTCTGSGFSFSSIAYMCWIRQAPGKGLEWIGCIGSGSGNTYYANWAKGRFTISKSSSTTVTLQMTSLTAADTATYFCASDTNNGWLGQFNLWGQGTLVTVSS VL: DIVMTQTPASVSAAVGGTVTINCQASQSISSYLAWYQQKPGQPPKLLIYRASTLASGVPSRFKGSGSGTQFTLTISDLECADAATYYCQGYYSVTTNTYGNTFGGGTEVVVKR
2.23 | 0.000353 | 159000 | Ab13 (antibody, human IgG1, kappa, N297A, V domains shown, also called antibody Ab13) VH: QSVEESGGRLVTPGTPLTLTCTVSGIDLSTYGVGWVRQAPGKGLEYIGIISSSGSTYYASWAKGRFTISKTSSTTVDLKMTSLTTEDTATYFCARDWSSTTGYYGYFNMWGPGTLVTVSS VL: AFELTQTPSPVSAAVGGTVTIKCQASQSISTALAWYQQKPGQPPKLLIYGASNLESGVPSRFSGSGSGTQFTLTISDLECADAAIYYCQSSYGSSTLAFGGGTEVVVKR
3.16 | 0.000278 | 88100 | Ab5 (antibody, human IgG1, kappa, N297A, V domains shown, also called antibody Ab5) VH: QSVEESGGRLVTPGTPLTLTCTVSGFSLSSYAMSWVRQAPGKGLEWIGIISNSGTTYYASWAKGRFTISKTSTTVDLKITSPTTEDTATYFCARGIYWYWRVFNLWGPGTLVTVSS VL: AVLTQTPSPVSAAVGGTVTINCQASQSVYNNLLSWYQQKPGQPPKLLIYDASNLASGVPDRFSGSGSGTQFTLTISGVQCDDAATYYCLGGYDDDADNAFGGGTEVVVKR
0.839 | 5.8e-05 | 69200 | Ab15 (antibody, human IgG1, kappa, N297A, V domains shown, also called antibody Ab15) VH: QEQLEESGGDLVKPEGSLTLTCTASGFSFSSSYWICWVRQAPGKGLEWIACIDAGNSGSTYYASWAKGRFTISKASSTTVTLQMTSLTAADTATYFCASDLNDGWLGQFNLWGPGTLVTVSS VL: NIVMTQTPSPVSGAVGGTVTIKCQASQSISDYLAWYQQKPGQPPKLLIYRASTLASGVPSRFRGSGSGTEYTLTITDLECADAATYYCQSYYSVTTNTYGNTFGGGTEVVVKR
